Assay results: the nanobody polyreactivity screen of Harvey et al. (2022)

test: yeast display, Sf9 membrane polyspecificity reagent, FACS + sequencing; frameworks hold sequencing errors
Summary of the method: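 Galactose-induced (36–48 hours) yeast carrying a synthetic nanobody display library were exposed to 10% biotinylated, detergent-solubilized Sf9 membrane reagent at 4 °C for 1 hour. FACS followed streptavidin microbead enrichment, using low and high (top ~1%) gates for expression (anti-HA) and reagent binding (streptavidin). Colony PCR, MiSeq 2 × 250 sequencing and CDR-length filtering followed. Labels for polyreactivity reflect the gate of origin.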

| Sequence | polyreactivity (PSR sort gate) |
| --- | --- |
| QVQLVESVGGIVQAGGSLRLTCAASGSIIKRNAMGWYRQAPGKERELVATISSGDGSTRYADSVKGRFTISRDNAKNTVYLQMNSLKPEDTAVYYCARDFTYTYYRWKTPYRIGHDYWGQGTQVTVSS | low polyreactivity |
| QVQLVESVGGLDQAGGSLRLSCAASGFILSWYAMGWYRQAPGKERELVAGISRRGGSTYYADSVTGRFTISRDNAKNTVYLQMNSLKPEDTAVYYCNALYDEWSVSTGDYWGQGTQVTVSS | high polyreactivity |
| QVQLVESVGGLDQAGGSLRLSCAASVFTFNIYVMGWYRQAPGKERELVAAISTSTGSTYYADSVKGRFTISRDNAKNTVYLQMNSLKPQDTAVYYCNADDYDLRFDYWGQGTQVTVSS | low polyreactivity |
| QVQLVESVGGLDQAGGTLRLSCAASALIFAYYAMGGYRQAPGKERELVAAITSSGTSTYYADSVKGRFTISRDNAKNTVYLQMNSLTPEDTAVYYCAASDRRLTGVGADEYWGQGTQVTVSS | high polyreactivity |
| QVQLVESVGGLGQAGGSLRLSCAASGSIFVLNARGWSRQAPGKERELVAGITYSGGSTYYADSVKGRFTISRDNATNTVYLQMNSLKPEDTAVYSCAAPVRRYPYPGRFYYWGQGTQVTVSS | low polyreactivity |
| QVQLVESVGGLGQARVRLRLSCAASGITFYRYAMGWYRQAPGKERELVAAITSRGTSTYYADSVKGRFTISRDNAKNTVYLQMNSLKPEDTAVYYCAAVLFVGDGGYDYWGQGTQVTVSS | high polyreactivity |
| QVQLVESVGGLVLAGASLRLSCAASGSTYAPNAMGWYRQAPGKERELVAVITSGDSTYYAVSVKGRFTISRDNAKNTVYLQMNSLKPEDTAVYYCASETYGTPGYYYWGQGTQVTVSS | low polyreactivity |
| QVQLVESVGGLVQAGCILRLSCAPSGRIFGVNAMGWYRQAPGKVRELVAAIDWSDGSTYYADSVKGRFTISRDNAKNTVYLQMNSLKPEDTAVYYCAALPSYLAAQYGDDYWGQGTQVTVSS | low polyreactivity |
| QVQLVESVGGLVQAGCSLRLSCGASGRIFPWYAMGWYRPAPGKERELVAAIRWRGGGTYYADSVKGRFTISRDNAKNTVYLQMNSLKPEDTAVYYCSARRPAKGMGYWGQGTQVTVSS | high polyreactivity |
| QVQLVESVGGLVQAGGCLRLSCDASGFIFTYVMGWYRQAAGKERELVAVITNGGSTYYADSVKGRFTISRDNAKNSFYLQMNSLKPEDTAVYYCAARDRFRYDAYYYWGLGTQVTVSS | high polyreactivity |
| QVQLVESVGGLVQAGGILRLSSAASGRIFYFYAMGWYRQAPGKERELVAGINWNGGSTHYADSVKGRFTISRDNAKNTVYLQMNSLKPEDTAVYYCAADGYYGQYGGHMGYWGQGTQVTVSS | high polyreactivity |
| QVQLVESVGGLVQAGGILRLSSAASGSTFERYAMGWDRQAPGKEREFVATINWGGGSTYYADSVKGRFTISRDNAKKTVYLQMNSLKPEDTAVDYCNAYVLYQSWRFSYDYWGQGTHVTVSS | low polyreactivity |
| QVQLVESVGGLVQAGGRLRLSSAASGFTFAFHAMGSYRQAPGKERELVAAISCSGVSTYYADSVKWRFTLSRDNEKNTDYLQMNSLKPEDTAVKYCAVGAVASSHRAGGKRHEYWGQGTQVTLSS | low polyreactivity |
| QVQLVESVGGLVQAGGSHRLSCAASGRTFQSNGMGWYRHAPGKERELDAAITWSSGTTYYADSVKGRFTISRDNAKNTVYLQMNSLKPEDTAVYYCAADCGHRNCLYYSGFGYWGQGTQVTVSS | low polyreactivity |
| QVQLVESVGGLVQAGGSHRLSCAASGSIFGYYTMGWYRQAPGKERELVAAITYSGGSTYYADSVKGRFTISRDNAKNTVYLQMNSLKPEDTAVYYCNAKSAAHRYVRRHDYWGLGTQVTVSS | low polyreactivity |
| QVQLVESVGGLVQAGGSHRLSCAASGSTFYRYAMGWYRQAPGKERELVAAISRSGGTTYYADSVKGRFTISRDNAKNTVYLQMNSLKPDDTAVYYCNARGRYEYGYWGQGTEVTVSS | high polyreactivity |

| Sequence | polyreactivity (PSR sort gate) |
| --- | --- |
| QVQLVESVGGLVQAGGSLRISCAASGRITQIYAMGWSRQAPRKEWELVARITSTDSTYYADSVKGRFTISRDNAKKTVYLKMNSLTPEDTAVYYCAASWWSPYDYWGQGTQVTVSS | low polyreactivity |
| QVQLVESVGGLVQAGGSLRISCAASGSTFPWYAMGWYRQAPGKERELVASITSGTTTNYADSVKGRFTISRDNAKNTVYLQRNSLKPEDTADYYCAASWVYQYDYWGQGTQVSVSS | low polyreactivity |
| QVQLVESVGGLVQAGGSLRISCAASGSTLTRNTMGWYRPAPGKEREFVATITRSGGSTYYADSVKGRFTISRDNAKNTVYLQMNSLKPEDTAVYYCAVRRQTFRYVYPGMDYWGQGTQVTVSS | high polyreactivity |
| QVQLVESVGGLVQAGGSLRLICAASGFIFWDYAMGSDRQAPGKERELVAAISDSGGDTYYAESVKGRFTISRDNAKNTVYLQMNSLKPEDTAVYFCAADLGRNYDYWGQGTQVTVLS | low polyreactivity |
| QVQLVESVGGLVQAGGSLRLICAASGLTFEWYTMGWYRQATGNERELVAVITVSGSSTYYADSVKGRFTISRDNAKNTVYLQMNSLKPEDTAVYYCARKTYYTGDFLGREYGYWGQGTQVTVSS | low polyreactivity |
| QVQLVESVGGLVQAGGSLRLICAASGSIFYPNAMGWYRQAPGKERELVAAISYSGTSTNYADSVKGRFTISRDNAKNTVYLQMNSLKPEDTAVYYCAARGFPHRRHSLYDYWGQGTQVTVSS | low polyreactivity |
| QVQLVESVGGLVQAGGSLRLICAASGSTFRVNAIGWYRQAPGKEREFVAAITGNAGSTYYADSVKGRFTISRDNAKNTVYLQMNSLKPEDTAVYYCAAGLPGYDGDYWGQGTQVTVSS | low polyreactivity |
| QVQLVESVGGLVQAGGSLRLSCAASGFIFSGNTMGWYRQAPGKERELVAAITSGGGRTYYADSVKGRFTISRDNAKNTVYLQMNSLKPEDTAVYYCNTAFVYEYDYWGQGTQVTVSS | high polyreactivity |
| QVQLVESVGGLVQAGGSLRLSCAASGFIFWPYAMGWSRQAPGKERELVAGITSDGSTHYADSVKGRFTISRDNAKNTVYLQINSLKPQDTAVYYCAKGIRYGYRVRVYYWGQGTQVTVSS | high polyreactivity |
| QVQLVESVGGLVQAGGSLRLSCAASGFIFYGYAMGWYRQAPGKERELVAAISRSGTSTYYADSVKGRFTISRDYAKNTVYLQMNSVKPDDTAVYYCDADYVGWKWGSRGAIYKHYYWGQGTQVTVSS | high polyreactivity |
| QVQLVESVGGLVQAGGSLRLSCAASGFIIRYYAMGWYRQAPGKERELVAVISSNGARTSYADSVKGRFTISRDNAKNTVYLQMNSLKPEDTAVYYCNARAWSRFPPVGHDYWGQGTQVTVSS | high polyreactivity |
| QVQLVESVGGLVQAGGSLRLSCAASGFIIYGYGMGWYRQAPGKERELVAAISARSTRTYYADSVKGRFTISRDNAKNTVYLQMNSLKPEDTAVYYCAAVRGPTYRNDNYGYWGQGTQVTVSS | high polyreactivity |
| QVQLVESVGGLVQAGGSLRLSCAASGFTFHDYAMGWYRQAPGKERELVAAIYFSGGRTYYADSVKGRFTISRDNAKNTVYLQMNSLKPEDNAVYYCNVPYYSFRELSSYYWGQGTQVTVSS | high polyreactivity |
| QVQLVESVGGLVQAGGSLRLSCAASGFTFRRYAMGWYRQAPGKERELVAAISYSGGITYYADSVKGRFTISRDNAKNTVYLQMNSLKPEDTAVYYCAADYFAPYKTYEYWGQGTQVTVSS | high polyreactivity |
| QVQLVESVGGLVQAGGSLRLSCAASGFTFSSNAMGWYRQAPGKERELVAAISGTGGSTYYSDSVKVRITISRDNAKNTFYLLMNRLKPDDKAVYYCARVYNFYTSGYDYWGKGTQVTVSS | high polyreactivity |
| QVQLVESVGGLVQAGGSLRLSCAASGFTFTPYGMGWYRQAPGKERELVAAITWNGGRTYYADSVKGRFTISRDNAKNTVYLQMNSLKPEDTAVYYCAAVAWSWQKRGYWGQGTQVTVSS | high polyreactivity |
